Measurements: US20160319027A1

Target: human TrkA on TF-1 cells (human), P04629
Assay: cell-based or functional assay

Chain of human TrkA on TF-1 cells (human), P04629 (P04629 33-796): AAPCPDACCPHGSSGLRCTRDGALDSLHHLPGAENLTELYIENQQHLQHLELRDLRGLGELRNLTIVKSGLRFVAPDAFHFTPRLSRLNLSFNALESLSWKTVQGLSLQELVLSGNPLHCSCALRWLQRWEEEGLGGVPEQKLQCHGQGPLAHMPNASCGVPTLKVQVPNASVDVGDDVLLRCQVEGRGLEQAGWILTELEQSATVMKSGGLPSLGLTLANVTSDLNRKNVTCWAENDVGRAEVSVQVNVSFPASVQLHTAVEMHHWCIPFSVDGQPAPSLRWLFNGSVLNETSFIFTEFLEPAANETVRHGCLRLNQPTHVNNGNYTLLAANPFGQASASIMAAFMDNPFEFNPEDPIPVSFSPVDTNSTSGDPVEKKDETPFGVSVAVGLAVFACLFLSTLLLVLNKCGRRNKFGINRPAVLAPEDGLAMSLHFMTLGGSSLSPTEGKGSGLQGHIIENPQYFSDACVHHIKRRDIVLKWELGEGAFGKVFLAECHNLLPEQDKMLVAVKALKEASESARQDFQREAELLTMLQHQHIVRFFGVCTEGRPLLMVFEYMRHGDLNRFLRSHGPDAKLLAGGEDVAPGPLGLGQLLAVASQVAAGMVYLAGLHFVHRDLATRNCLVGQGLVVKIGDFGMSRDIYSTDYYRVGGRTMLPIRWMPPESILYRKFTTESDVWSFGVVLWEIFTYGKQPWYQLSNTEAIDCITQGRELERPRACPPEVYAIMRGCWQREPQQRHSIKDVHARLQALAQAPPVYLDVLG

TF-1 cell proliferation assay IC50 (5 ng/ml human beta-NGF): 0.23 µg/mL
B1: MNAC13 mouse antibody (antibody, mouse IgG1, kappa)
heavy: EVKLVESGGGLVQPGGSLKLSCAASGFTFSTYTMSWARQTPEKRLEWVAYISKGGGSTYYPDTVKGRFTISRDNAKNTLYLQMSSLKSEDTALYYCARGAMYGNDFFYPMDYWGQGTSVTVSSKTTPPSVYPLAPGSAAQTNSMVTLGCLVKGYFPEPVTVTWNSGSLSSGVHTFPAVLESDLYTLSSSVTVPSSPRPSETVTCNVAHPASSTKVDKKIVPRDCGCKPCICTVPEVSSVFIFPPKPKDVLTITLTPKVTCVVVDISKDDPEVQFSWFVDDVEVHTAQTQPREEQFNSTFRSVSELPIMHQDWLNGKEFKCRVNSAAFPAPIEKTISKTKGRPKAPQVYTIPPPKEQMAKDKVSLTCMITDFFPEDITVEWQWNGQPAENYKNTQPIMNTNGSYFVYSKLNVQKSNWEAGNTFTCSVLHEGLHNHHTEKSLSHSPGK
light: QIVLTQSPAIMSASLGEEITLTCSASSSVSYMHWYQQKSGTSPKLLIYTTSNLASGVPSRFSGSGSGTFYSLTISSVEAEDAADYYCHQWSSYPWTFGGGTKLEIKADAAPTVSIFPPSSEQLTSGGASVVCFLNNFYPKDINVKWKIDGSERQNGVLNSWTDQDSKDSTYSMSSTLTLTKDEYERHNSYTCEATHKTSTSPIVKSFNRNEC
